Measured values from US20030124530 (Genelabs Technologies, Inc., published 2003).

Legend:
[1] = molecular target: T1, UL9-COOH (C-terminal DNA-binding fragment of UL9) (Herpes simplex virus 1, UniProt P10193 P10193:535-851); test: EMSA; flanks have little effect on off-rate; disrupted by distamycin A; conditions: tags: GST fusion from pGEX-2T, thrombin-cleaved; E. coli JM109; bacterial extracts also used; label: 32P
[2] = molecular target: T1, UL9-COOH (C-terminal DNA-binding …); test: EMSA; flanks have little effect on off-rate; disrupted by doxorubicin; conditions: tags: GST fusion from pGEX-2T, thrombin-cleaved; E. coli JM109; bacterial extracts also used; label: 32P
[3] = molecular target: T1, UL9-COOH (C-terminal DNA-binding …); test: EMSA; flanks have little effect on off-rate; disrupted by distamycin A and doxorubicin; conditions: tags: GST fusion from pGEX-2T, thrombin-cleaved; E. coli JM109; bacterial extracts also used; label: 32P
[4] = molecular target: T1, UL9-COOH (C-terminal DNA-binding …); test: EMSA; flanks have little effect on off-rate; conditions: tags: GST fusion from pGEX-2T, thrombin-cleaved; E. coli JM109; bacterial extracts also used; label: 32P
[5] = molecular target: T1, UL9-COOH (C-terminal DNA-binding …); test: EMSA; flanks have little effect on off-rate; filter binding same; disrupted by actinomycin D; conditions: tags: GST fusion from pGEX-2T, thrombin-cleaved; E. coli JM109; bacterial extracts also used; label: 32P
[6] = molecular target: T1, UL9-COOH (C-terminal DNA-binding …); test: EMSA; flanks have little effect on off-rate; particularly disrupted by doxorubicin; conditions: tags: GST fusion from pGEX-2T, thrombin-cleaved; E. coli JM109; bacterial extracts also used; label: 32P
[7] = molecular target: T1, UL9-COOH (C-terminal DNA-binding …); test: EMSA; flanks have little effect on off-rate; disrupted by actinomycin D and doxorubicin; conditions: tags: GST fusion from pGEX-2T, thrombin-cleaved; E. coli JM109; bacterial extracts also used; label: 32P
[8] = molecular target: T1, UL9-COOH (C-terminal DNA-binding …); test: competition; unlabelled competitor in dissociation assay; conditions: tags: GST fusion from pGEX-2T, thrombin-cleaved; E. coli JM109; bacterial extracts also used

T1 sequence (P10193 535-851, one chain of several): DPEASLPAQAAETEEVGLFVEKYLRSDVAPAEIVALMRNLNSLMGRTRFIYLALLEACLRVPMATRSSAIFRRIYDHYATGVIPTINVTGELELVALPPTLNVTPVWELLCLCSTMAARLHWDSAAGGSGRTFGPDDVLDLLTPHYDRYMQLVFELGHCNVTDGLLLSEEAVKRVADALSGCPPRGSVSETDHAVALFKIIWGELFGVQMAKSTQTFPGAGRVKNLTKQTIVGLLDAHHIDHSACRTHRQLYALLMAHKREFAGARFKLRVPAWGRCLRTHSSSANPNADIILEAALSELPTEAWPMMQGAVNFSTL

B1: UL9 ATAT (dsDNA)
DNA 1: GGATATATACGTTCGCACTTTAATTATTGG
DNA 2: CCAATAATTAAAGTGCGAACGTATATATCC
B1: binds [1].

B2: oriEco2 (dsDNA)
DNA 1: GGCGAATTCGACGTTCGCACTTCGTCCCAAT
DNA 2: ATTGGGACGAAGTGCGAACGTCGAATTCGCC
B2: binds [2].

B3: UL9 polyT (dsDNA)
DNA 1: GGTTTTTTTCGTTCGCACTTTTTTTTTTGG
DNA 2: CCAAAAAAAAAAGTGCGAACGAAAAAAACC
B3: binds [3].

B4: ATori1 (dsDNA)
DNA 1: GCGTATATATCGTTCGCACTTCGTCCCAAT
DNA 2: ATTGGGACGAAGTGCGAACGATATATACGC
B4: binds [4].

B5: FIG. 5 oligo SEQ ID NO:610 (dsDNA)
DNA 1: GGACGCACGCGTTCGCACTTGCAGCAGCGG
DNA 2: CCGCTGCTGCAAGTGCGAACGCGTGCGTCC
B5: binds [4].

B6: UL9 CCCG (dsDNA)
DNA 1: GGCCCGCCCCGTTCGCACTTCCCGCCCCGG
DNA 2: CCGGGGCGGGAAGTGCGAACGGGGCGGGCC
B6: binds [5].

B7: UL9 polyA (dsDNA)
DNA 1: GGAAAAAAACGTTCGCACTTAAAAAAAAGG
DNA 2: CCTTTTTTTTAAGTGCGAACGTTTTTTTCC
B7: binds [1].

B8: oriEco3 (dsDNA)
DNA 1: GGCGAATTCGATCGTTCGCACTTCGTCCCAAT
DNA 2: ATTGGGACGAAGTGCGAACGATCGAATTCGCC
B8: binds [6].

B9: UL9 GGGC (dsDNA)
DNA 1: GGCGGGCGCCGTTCGCACTTGGGCGGGCGG
DNA 2: CCGCCCGCCCAAGTGCGAACGGCGCCCGCC
B9: binds [7].

B10: 17 bp UL9 competitor (dsDNA)
DNA 1: GGTCGTTCGCACTTCGC
DNA 2: GCGAAGTGCGAACGACC
B10: binds [8].
